What was measured:
[1] = biological target: filamentous actin (F-actin) from rabbit skeletal muscle (rabbit, UniProt P68135 1-377); assay: co-sedimentation
SEC + other: NMR = biological target: the molecule itself; assay: SEC + other: NMR

B1: talin 2300–2541 (C-terminal actin-binding domain, wild type) (domain or fragment, mouse, UniProt P26039 2300-2541, looked up)
chain: DPTVIAENELLGAAAAIEAAAKKLEQLKPRAKPKEADESLNFEEQILEAAKSIAAATSALVKAASAAQRELVAQGKVGAIPANALDDGQWSQGLISAARMVAAATNNLCEAANAAVQGHASQEKLISSAKQVAASTAQLLVACKVKADQDSEAMKRLQAAGNAVKRASDNLVKAAQKAAAFEDQENETVVVKEKMVGGIAQIIAAQEEMLRKERELEEARKKLAQIRQQQYKFLPSELRDEH
[1]
  co-sedimentation pellet (% of WT): 100 ± 3 % of WT
SEC + other: NMR
  stoichiometry N: 2

B2: talin 2300–2541 A2518D (domain or fragment)
chain: DPTVIAENELLGAAAAIEAAAKKLEQLKPRAKPKEADESLNFEEQILEAAKSIAAATSALVKAASAAQRELVAQGKVGAIPANALDDGQWSQGLISAARMVAAATNNLCEAANAAVQGHASQEKLISSAKQVAASTAQLLVACKVKADQDSEAMKRLQAAGNAVKRASDNLVKAAQKAAAFEDQENETVVVKEKMVGGIAQIIAAQEEMLRKERELEEDRKKLAQIRQQQYKFLPSELRDEH
[1]
  co-sedimentation pellet (% of WT): 43 ± 10 % of WT

B3: talin 2300–2541 D2385K/D2386N (domain or fragment, mouse, UniProt P26039 2300-2541, looked up)
chain: DPTVIAENELLGAAAAIEAAAKKLEQLKPRAKPKEADESLNFEEQILEAAKSIAAATSALVKAASAAQRELVAQGKVGAIPANALKNGQWSQGLISAARMVAAATNNLCEAANAAVQGHASQEKLISSAKQVAASTAQLLVACKVKADQDSEAMKRLQAAGNAVKRASDNLVKAAQKAAAFEDQENETVVVKEKMVGGIAQIIAAQEEMLRKERELEEARKKLAQIRQQQYKFLPSELRDEH
[1]
  co-sedimentation pellet (% of WT): 113 ± 13 % of WT
SEC + other: NMR
  stoichiometry N: 2

B4: talin 2300–2541 D2385K/D2386N/D2447N (domain or fragment, mouse, UniProt P26039 2300-2541, looked up)
chain: DPTVIAENELLGAAAAIEAAAKKLEQLKPRAKPKEADESLNFEEQILEAAKSIAAATSALVKAASAAQRELVAQGKVGAIPANALKNGQWSQGLISAARMVAAATNNLCEAANAAVQGHASQEKLISSAKQVAASTAQLLVACKVKANQDSEAMKRLQAAGNAVKRASDNLVKAAQKAAAFEDQENETVVVKEKMVGGIAQIIAAQEEMLRKERELEEARKKLAQIRQQQYKFLPSELRDEH
[1]
  co-sedimentation pellet (% of WT): 138 ± 16 % of WT
SEC + other: NMR
  stoichiometry N: 2

B5: talin 2300–2541 D2447N (domain or fragment, mouse, UniProt P26039 2300-2541, looked up)
chain: DPTVIAENELLGAAAAIEAAAKKLEQLKPRAKPKEADESLNFEEQILEAAKSIAAATSALVKAASAAQRELVAQGKVGAIPANALDDGQWSQGLISAARMVAAATNNLCEAANAAVQGHASQEKLISSAKQVAASTAQLLVACKVKANQDSEAMKRLQAAGNAVKRASDNLVKAAQKAAAFEDQENETVVVKEKMVGGIAQIIAAQEEMLRKERELEEARKKLAQIRQQQYKFLPSELRDEH
[1]
  co-sedimentation pellet (% of WT): 144 ± 8 % of WT
SEC + other: NMR
  stoichiometry N: 2

B6: talin 2300–2541 I2316A (domain or fragment, mouse, UniProt P26039 2300-2541, looked up)
chain: DPTVIAENELLGAAAAAEAAAKKLEQLKPRAKPKEADESLNFEEQILEAAKSIAAATSALVKAASAAQRELVAQGKVGAIPANALDDGQWSQGLISAARMVAAATNNLCEAANAAVQGHASQEKLISSAKQVAASTAQLLVACKVKADQDSEAMKRLQAAGNAVKRASDNLVKAAQKAAAFEDQENETVVVKEKMVGGIAQIIAAQEEMLRKERELEEARKKLAQIRQQQYKFLPSELRDEH
[1]
  co-sedimentation pellet (% of WT): 96 ± 9 % of WT
SEC + other: NMR
  stoichiometry N: 2

B7: talin 2300–2541 I2316A/L2323A (domain or fragment, mouse, UniProt P26039 2300-2541, looked up)
chain: DPTVIAENELLGAAAAAEAAAKKAEQLKPRAKPKEADESLNFEEQILEAAKSIAAATSALVKAASAAQRELVAQGKVGAIPANALDDGQWSQGLISAARMVAAATNNLCEAANAAVQGHASQEKLISSAKQVAASTAQLLVACKVKADQDSEAMKRLQAAGNAVKRASDNLVKAAQKAAAFEDQENETVVVKEKMVGGIAQIIAAQEEMLRKERELEEARKKLAQIRQQQYKFLPSELRDEH
[1]
  co-sedimentation pellet (% of WT): 135 ± 13 % of WT
SEC + other: NMR
  stoichiometry N: 2

B8: talin 2300–2541 K2443D (domain or fragment, mouse, UniProt P26039 2300-2541, looked up)
chain: DPTVIAENELLGAAAAIEAAAKKLEQLKPRAKPKEADESLNFEEQILEAAKSIAAATSALVKAASAAQRELVAQGKVGAIPANALDDGQWSQGLISAARMVAAATNNLCEAANAAVQGHASQEKLISSAKQVAASTAQLLVACDVKADQDSEAMKRLQAAGNAVKRASDNLVKAAQKAAAFEDQENETVVVKEKMVGGIAQIIAAQEEMLRKERELEEARKKLAQIRQQQYKFLPSELRDEH
[1]
  co-sedimentation pellet (% of WT): 43 ± 5 % of WT
SEC + other: NMR
  stoichiometry N: 2

B9: talin 2300–2541 K2443D/V2444D/K2445D (domain or fragment, mouse, UniProt P26039 2300-2541, looked up)
chain: DPTVIAENELLGAAAAIEAAAKKLEQLKPRAKPKEADESLNFEEQILEAAKSIAAATSALVKAASAAQRELVAQGKVGAIPANALDDGQWSQGLISAARMVAAATNNLCEAANAAVQGHASQEKLISSAKQVAASTAQLLVACDDDADQDSEAMKRLQAAGNAVKRASDNLVKAAQKAAAFEDQENETVVVKEKMVGGIAQIIAAQEEMLRKERELEEARKKLAQIRQQQYKFLPSELRDEH
[1]
  co-sedimentation pellet (% of WT): 27 ± 6 % of WT
SEC + other: NMR
  stoichiometry N: 2

B10: talin 2300–2541 K2445D (domain or fragment, mouse, UniProt P26039 2300-2541, looked up)
chain: DPTVIAENELLGAAAAIEAAAKKLEQLKPRAKPKEADESLNFEEQILEAAKSIAAATSALVKAASAAQRELVAQGKVGAIPANALDDGQWSQGLISAARMVAAATNNLCEAANAAVQGHASQEKLISSAKQVAASTAQLLVACKVDADQDSEAMKRLQAAGNAVKRASDNLVKAAQKAAAFEDQENETVVVKEKMVGGIAQIIAAQEEMLRKERELEEARKKLAQIRQQQYKFLPSELRDEH
[1]
  co-sedimentation pellet (% of WT): 48 ± 10 % of WT
SEC + other: NMR
  stoichiometry N: 2

B11: talin 2300–2541 L2309A (domain or fragment, mouse, UniProt P26039 2300-2541, looked up)
chain: DPTVIAENEALGAAAAIEAAAKKLEQLKPRAKPKEADESLNFEEQILEAAKSIAAATSALVKAASAAQRELVAQGKVGAIPANALDDGQWSQGLISAARMVAAATNNLCEAANAAVQGHASQEKLISSAKQVAASTAQLLVACKVKADQDSEAMKRLQAAGNAVKRASDNLVKAAQKAAAFEDQENETVVVKEKMVGGIAQIIAAQEEMLRKERELEEARKKLAQIRQQQYKFLPSELRDEH
[1]
  co-sedimentation pellet (% of WT): 113 ± 3 % of WT
SEC + other: NMR
  stoichiometry N: 2

B12: talin 2300–2541 L2309A/L2323A (domain or fragment, mouse, UniProt P26039 2300-2541, looked up)
chain: DPTVIAENEALGAAAAIEAAAKKAEQLKPRAKPKEADESLNFEEQILEAAKSIAAATSALVKAASAAQRELVAQGKVGAIPANALDDGQWSQGLISAARMVAAATNNLCEAANAAVQGHASQEKLISSAKQVAASTAQLLVACKVKADQDSEAMKRLQAAGNAVKRASDNLVKAAQKAAAFEDQENETVVVKEKMVGGIAQIIAAQEEMLRKERELEEARKKLAQIRQQQYKFLPSELRDEH
[1]
  co-sedimentation pellet (% of WT): 154 ± 7 % of WT
SEC + other: NMR
  stoichiometry N: 2

B13: talin 2300–2541 L2323A (domain or fragment, mouse, UniProt P26039 2300-2541, looked up)
chain: DPTVIAENELLGAAAAIEAAAKKAEQLKPRAKPKEADESLNFEEQILEAAKSIAAATSALVKAASAAQRELVAQGKVGAIPANALDDGQWSQGLISAARMVAAATNNLCEAANAAVQGHASQEKLISSAKQVAASTAQLLVACKVKADQDSEAMKRLQAAGNAVKRASDNLVKAAQKAAAFEDQENETVVVKEKMVGGIAQIIAAQEEMLRKERELEEARKKLAQIRQQQYKFLPSELRDEH
[1]
  co-sedimentation pellet (% of WT): 127 ± 3 % of WT
SEC + other: NMR
  stoichiometry N: 2

B14: talin 2300–2541 L2515D (domain or fragment)
chain: DPTVIAENELLGAAAAIEAAAKKLEQLKPRAKPKEADESLNFEEQILEAAKSIAAATSALVKAASAAQRELVAQGKVGAIPANALDDGQWSQGLISAARMVAAATNNLCEAANAAVQGHASQEKLISSAKQVAASTAQLLVACKVKADQDSEAMKRLQAAGNAVKRASDNLVKAAQKAAAFEDQENETVVVKEKMVGGIAQIIAAQEEMLRKEREDEEARKKLAQIRQQQYKFLPSELRDEH
[1]
  co-sedimentation pellet (% of WT): 36 ± 6 % of WT

B15: talin 2300–2541 L2515D/A2518D (domain or fragment)
chain: DPTVIAENELLGAAAAIEAAAKKLEQLKPRAKPKEADESLNFEEQILEAAKSIAAATSALVKAASAAQRELVAQGKVGAIPANALDDGQWSQGLISAARMVAAATNNLCEAANAAVQGHASQEKLISSAKQVAASTAQLLVACKVKADQDSEAMKRLQAAGNAVKRASDNLVKAAQKAAAFEDQENETVVVKEKMVGGIAQIIAAQEEMLRKEREDEEDRKKLAQIRQQQYKFLPSELRDEH
[1]
  co-sedimentation pellet (% of WT): 42 ± 7 % of WT

B16: talin 2300–2541 Q2388D (domain or fragment, mouse, UniProt P26039 2300-2541, looked up)
chain: DPTVIAENELLGAAAAIEAAAKKLEQLKPRAKPKEADESLNFEEQILEAAKSIAAATSALVKAASAAQRELVAQGKVGAIPANALDDGDWSQGLISAARMVAAATNNLCEAANAAVQGHASQEKLISSAKQVAASTAQLLVACKVKADQDSEAMKRLQAAGNAVKRASDNLVKAAQKAAAFEDQENETVVVKEKMVGGIAQIIAAQEEMLRKERELEEARKKLAQIRQQQYKFLPSELRDEH
[1]
  co-sedimentation pellet (% of WT): 59 ± 5 % of WT
SEC + other: NMR
  stoichiometry N: 2

B17: talin 2300–2541 R2519A (domain or fragment)
chain: DPTVIAENELLGAAAAIEAAAKKLEQLKPRAKPKEADESLNFEEQILEAAKSIAAATSALVKAASAAQRELVAQGKVGAIPANALDDGQWSQGLISAARMVAAATNNLCEAANAAVQGHASQEKLISSAKQVAASTAQLLVACKVKADQDSEAMKRLQAAGNAVKRASDNLVKAAQKAAAFEDQENETVVVKEKMVGGIAQIIAAQEEMLRKERELEEAAKKLAQIRQQQYKFLPSELRDEH
[1]
  co-sedimentation pellet (% of WT): 37 ± 3 % of WT

B18: talin 2300–2541 R2526A (domain or fragment)
chain: DPTVIAENELLGAAAAIEAAAKKLEQLKPRAKPKEADESLNFEEQILEAAKSIAAATSALVKAASAAQRELVAQGKVGAIPANALDDGQWSQGLISAARMVAAATNNLCEAANAAVQGHASQEKLISSAKQVAASTAQLLVACKVKADQDSEAMKRLQAAGNAVKRASDNLVKAAQKAAAFEDQENETVVVKEKMVGGIAQIIAAQEEMLRKERELEEARKKLAQIAQQQYKFLPSELRDEH
[1]
  co-sedimentation pellet (% of WT): 37 ± 9 % of WT

B19: talin 2300–2541 R2526G (domain or fragment)
chain: DPTVIAENELLGAAAAIEAAAKKLEQLKPRAKPKEADESLNFEEQILEAAKSIAAATSALVKAASAAQRELVAQGKVGAIPANALDDGQWSQGLISAARMVAAATNNLCEAANAAVQGHASQEKLISSAKQVAASTAQLLVACKVKADQDSEAMKRLQAAGNAVKRASDNLVKAAQKAAAFEDQENETVVVKEKMVGGIAQIIAAQEEMLRKERELEEARKKLAQIGQQQYKFLPSELRDEH
[1]
  co-sedimentation pellet (% of WT): 33 ± 5 % of WT
